Four molecules from publication PMC8595387 (Scientific Reports, 2021) can be followed below.

Test [1] concerns the target T1, Recombinant Human ADAMTS13 (Full Length) Protein (Homo sapiens, UniProt Q76LX8).
T1 construct: ADAMTS13, human, commercial recombinant protein named 'Full Length' by the vendor; also called a disintegrin-like and metalloproteinase with thrombospondin type-1 motif 13; source: bought: R&D Systems (6156-AD-020)
Put plainly: SPR; Biacore T200; antibodies captured at about 1,000 RU on anti-human or anti-mouse IgG (Fc) on a CM5 chip; ADAMTS13 injected at 80 nM to 0.625 nM in PBS with 0.05% Tween 20; 25 C; 30 uL/min; contact 240 s, dissociation 900 s; 1:1 binding model. The following applies: both partners purified. (Surface plasmon resonance follows binding to a sensor surface in real time, without labels.)

Test [2] has as its target T1, Recombinant Human ADAMTS13 (Full …). Put plainly: cell-based or functional assay.

T1 sequence (Q76LX8 75-1427): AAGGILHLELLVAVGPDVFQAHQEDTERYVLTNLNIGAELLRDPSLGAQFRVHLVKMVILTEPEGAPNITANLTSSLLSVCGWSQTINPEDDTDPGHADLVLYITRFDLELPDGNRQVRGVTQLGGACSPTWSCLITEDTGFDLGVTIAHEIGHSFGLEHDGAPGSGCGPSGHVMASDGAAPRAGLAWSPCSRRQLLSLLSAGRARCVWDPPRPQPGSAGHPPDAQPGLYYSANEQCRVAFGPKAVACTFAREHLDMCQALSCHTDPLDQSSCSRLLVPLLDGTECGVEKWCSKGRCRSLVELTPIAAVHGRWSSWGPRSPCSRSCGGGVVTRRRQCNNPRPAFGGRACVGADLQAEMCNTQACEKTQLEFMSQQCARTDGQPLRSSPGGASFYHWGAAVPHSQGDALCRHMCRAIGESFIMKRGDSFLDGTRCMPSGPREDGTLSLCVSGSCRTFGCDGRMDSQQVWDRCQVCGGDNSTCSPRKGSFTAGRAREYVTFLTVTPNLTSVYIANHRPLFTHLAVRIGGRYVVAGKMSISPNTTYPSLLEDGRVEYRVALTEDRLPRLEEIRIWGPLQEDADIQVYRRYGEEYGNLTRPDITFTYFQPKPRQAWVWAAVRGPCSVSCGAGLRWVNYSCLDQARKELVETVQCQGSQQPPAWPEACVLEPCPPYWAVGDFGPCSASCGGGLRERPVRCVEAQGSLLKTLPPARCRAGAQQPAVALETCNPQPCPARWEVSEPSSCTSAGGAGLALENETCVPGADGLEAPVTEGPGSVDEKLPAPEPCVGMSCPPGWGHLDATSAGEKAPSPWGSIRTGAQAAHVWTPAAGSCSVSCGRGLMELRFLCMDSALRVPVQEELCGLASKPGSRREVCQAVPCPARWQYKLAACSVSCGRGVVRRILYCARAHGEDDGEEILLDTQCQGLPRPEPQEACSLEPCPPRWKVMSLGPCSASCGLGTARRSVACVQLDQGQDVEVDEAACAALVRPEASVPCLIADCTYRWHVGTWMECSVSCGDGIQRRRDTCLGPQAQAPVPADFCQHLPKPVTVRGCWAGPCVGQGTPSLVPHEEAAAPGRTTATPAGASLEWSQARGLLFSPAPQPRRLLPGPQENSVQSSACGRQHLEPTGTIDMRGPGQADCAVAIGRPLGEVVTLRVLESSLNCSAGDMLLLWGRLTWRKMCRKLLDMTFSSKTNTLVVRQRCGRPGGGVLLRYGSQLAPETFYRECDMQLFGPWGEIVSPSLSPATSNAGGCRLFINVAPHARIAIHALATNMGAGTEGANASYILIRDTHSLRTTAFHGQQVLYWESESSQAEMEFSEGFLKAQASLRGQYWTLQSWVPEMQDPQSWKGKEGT

B1: humanized A10 antibody A10/16E8 (antibody, V domains shown)
VH: QVQLVQSGGQVKKPGASVKISCKASGYSFTGYTMHWVKQAPGRGLEWIGLINPYNGGTGYNQKFKGKATLTVDKSSSTTYIELLSLTSEDSAVYYCARTSGYLFAYWGQGTLVTVSS
VL: DIVLTQTPDSLAVSLGERATITCKASEDIYNRLAWYQQKAGQPPKLLISGATSLETGVPDRFSGSGSGTDFTLTISSLQAEDVATYYCQQYWSSPLTFGAGTKVNIK
notes: VH of A10/16E8 (CDRs and flanking FR residues of mA10 grafted onto the human framework 16E8); VL of A10/16E8 (CDRs and flanking FR residues of mA10 grafted onto the human framework 16E8); also called A10/16A8 (as printed once in the discussion); source: Expi293F, transiently transfected, purified (protein G)
Broadly, the Kd is a measure of binding affinity in units of concentration. In general, koff refers to a measure of how fast the partners let go of each other. What is called kon is the second-order rate constant of association. For the molecule B1, in test [1], the Kd turned out to be 5.07 nM, the koff stood at 6.3e-05 s⁻¹ and the kon was 12400 M⁻¹ s⁻¹. Further, in test [2], the “IC50 of inhibition of plasma ADAMTS13 activity on VWF cleavage (chromogenic ELISA, normal pooled plasma, antibody 25 to 0.20 ug/mL)” value is 0.9 µg/mL.

B2: mouse anti-ADAMTS13 antibody clone A10 (antibody, V domains shown)
VH: EVQLQQSGPELVKPGTSMKISCKASGYSFTGYTMHWVKQSHGKNLEWIGLINPYNGGTGYNQKFKGKATLTVDKSSSTTYIELLSLTSEDSAVYYCARTSGYLFAYWGQGTLVTVSA
VL: DIQMTQSSSSFSVSLGDRVTITCKASEDIYNRLAWYQQKPGNAPRLLISGATSLETGVPSRFSGSGSGKDYIFSITSLQTEDVATYYCQQYWSSPLTFGAGTKLELK
notes: VH of mA10; mouse heavy chain constant region cloned from the mA10 hybridoma; VL of mA10; mouse light chain constant region cloned from the mA10 hybridoma; Whole mouse IgG; mouse IgG2b served as the negative control, which may hint at IgG2b (surmise); also called mA10; mouse A10; source: Expi293F, transiently transfected, purified (protein G)
For B2, in test [1], the Kd came out at 5.99 nM, the koff worked out at 0.000362 s⁻¹ and the kon worked out at 60400 M⁻¹ s⁻¹. Further, the “IC50 of inhibition of plasma ADAMTS13 activity on VWF cleavage (chromogenic ELISA, normal pooled plasma, antibody 25 to 0.20 ug/mL)” value in test [2] was 2.28 µg/mL.

B3: human-mouse chimeric A10 (antibody, V domains shown)
VH: EVQLQQSGPELVKPGTSMKISCKASGYSFTGYTMHWVKQSHGKNLEWIGLINPYNGGTGYNQKFKGKATLTVDKSSSTTYIELLSLTSEDSAVYYCARTSGYLFAYWGQGTLVTVSA
VL: DIQMTQSSSSFSVSLGDRVTITCKASEDIYNRLAWYQQKPGNAPRLLISGATSLETGVPSRFSGSGSGKDYIFSITSLQTEDVATYYCQQYWSSPLTFGAGTKLELK
As for B3, in test [1], the Kd was 2.8 nM, the koff amounted to 2.03e-05 s⁻¹ and the kon was 7270 M⁻¹ s⁻¹. Also, the “IC50 of inhibition of plasma ADAMTS13 activity on VWF cleavage (chromogenic ELISA, normal pooled plasma, antibody 25 to 0.20 ug/mL)” value in test [2] amounted to 2.3 µg/mL.

B4: humanized A10 antibody A10/8A7 (antibody, V domains shown)
VH: QIHLVESGGGVVQTGKSMKISCKASGYSFTGYTMHWVKQTPGKNLEWIGLINPYNGGTGYNQKFKGKATLTVDKSSSTTYIELLSLTSEDSAVYYCARTSGYLFAYWGQGTLVTVSS
VL: ETVMTQSPATLSVSPGERATITCKASEDIYNRLAWYQQKPGQAPRLLISGATSLETGVPSRFSGSGSGTEFTLTISSLQSEDVATYYCQQYWSSPLTFGAGTKLEIK
In the case of B4, in test [1], the Kd came out at 20.8 nM, the koff is 0.000193 s⁻¹ and the kon amounted to 9270 M⁻¹ s⁻¹. Besides, in test [2], the “IC50 of inhibition of plasma ADAMTS13 activity on VWF cleavage (chromogenic ELISA, normal pooled plasma, antibody 25 to 0.20 ug/mL)” value is 7.3 µg/mL.
